In publication PMC4698195 (Carbohydrate research, 2015):

Experiments:
[1] = biological target: UDP-N-acetylglucosamine (UDP-GlcNAc) 2-epimerase (NmSacA) (Neisseria meningitidis, UniProt A0A0U1RGY0); format: biochemical
[2] = tested on: CC(=O)N[C@@H]1[C@@H](OP(=O)(O)OP(=O)(O)OC[C@H]2O[C@@H](N3CCC(=O)NC3=O)[C@H](O)[C@@H]2O)O[C@H](CO)[C@@H](O)[C@@H]1O; test: purified protein
[3] = tested on: CC(=O)N[C@@H]1[C@@H](OP(=O)(O)OP(=O)(O)OC[C@H]2O[C@@H](n3ccc(=O)[nH]c3=O)[C@H](O)[C@@H]2O)O[C@H](CO)[C@@H](O)[C@@H]1O; test: purified protein
[4] = tested on: CC(=O)N[C@H]1[C@@H](OP(=O)(O)OP(=O)(O)OC[C@H]2O[C@@H](n3ccc(=O)[nH]c3=O)[C@H](O)[C@@H]2O)O[C@H](CO)[C@@H](O)[C@@H]1O; test: purified protein
[5] = tested on: CCC(=O)N[C@@H]1[C@@H](OP(=O)(O)OP(=O)(O)OC[C@H]2O[C@@H](n3ccc(=O)[nH]c3=O)[C@H](O)[C@@H]2O)O[C@H](CO)[C@@H](O)[C@@H]1O; test: purified protein
[6] = tested on: O=C(CO)N[C@@H]1[C@@H](OP(=O)(O)OP(=O)(O)OC[C@H]2O[C@@H](n3ccc(=O)[nH]c3=O)[C@H](O)[C@@H]2O)O[C@H](CO)[C@@H](O)[C@@H]1O; test: purified protein

UDP-N-acetylglucosamine (UDP-GlcNAc) 2-epimerase (NmSacA), sequence (A0A0U1RGY0 whole entry): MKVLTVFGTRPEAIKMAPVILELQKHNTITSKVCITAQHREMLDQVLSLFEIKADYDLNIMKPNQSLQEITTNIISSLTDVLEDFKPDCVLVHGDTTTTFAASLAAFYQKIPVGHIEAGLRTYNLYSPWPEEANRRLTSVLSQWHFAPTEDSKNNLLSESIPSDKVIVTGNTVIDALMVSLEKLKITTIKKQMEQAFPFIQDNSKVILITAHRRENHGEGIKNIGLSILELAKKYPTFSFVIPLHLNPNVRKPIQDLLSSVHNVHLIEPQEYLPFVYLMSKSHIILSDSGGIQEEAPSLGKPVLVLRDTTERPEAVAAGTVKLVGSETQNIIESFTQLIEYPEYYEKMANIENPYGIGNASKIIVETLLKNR

Row | Ki [1] | Molecule | Km [2] | kcat [2] | kcat/Km [2] | Km [3] | kcat [3] | kcat/Km [3] | Km [4] | kcat [4] | kcat/Km [4] | Km [5] | kcat [5] | kcat/Km [5] | Km [6] | kcat [6] | kcat/Km [6]
1 | 14 mM | CC(=O)NC1=CO[C@H](CO)[C@@H](O)[C@@H]1O [D, 2-acetamidoglucal] |  |  |  |  |  |  |  |  |  |  |  |  |  |  | 
2 | 0.8 mM | O=c1ccn([C@@H]2O[C@H](COP(=O)(O)OP(=O)(O)O)[C@@H](O)[C@H]2O)c(=O)[nH]1 [UDP] |  |  |  |  |  |  |  |  |  |  |  |  |  |  | 
3 |  | UDP-N-acetylglucosamine (UDP-GlcNAc) 2-epimerase (NmSacA) (Neisseria meningitidis Z2491) | 63 ± 7.0 mM | 6.7 ± 0.5 s⁻¹ | 110 M⁻¹ s⁻¹ | 5.2 ± 1.1 mM | 52 ± 5 s⁻¹ | 10000 M⁻¹ s⁻¹ | 3.6 ± 0.5 mM | 31 ± 2 s⁻¹ | 8600 M⁻¹ s⁻¹ | 51 ± 5.0 mM | 7.8 ± 0.3 s⁻¹ | 150 M⁻¹ s⁻¹ | 20 ± 1.9 mM | 4.2 ± 0.2 s⁻¹ | 210 M⁻¹ s⁻¹
